T1: biotin-MBP-NLRP1 M1184V (Avi-MBP-tev-NLRP1 M1184V) (human, UniProt Q9C000 1-1473, M1184V, biotin (on the Avi tag, BirA co-expressed))
T1 construct: NLRP1, human, isoform 1, residues 1-1473, natural variant M1184V; also called M1184VSf9; source: Sf9 insect cells, co-expressed with BirA, purified (multimer or void SEC fraction); not shown: Avi, N-terminal, kept; MBP, N-terminal, kept
T1 sequence (looked up): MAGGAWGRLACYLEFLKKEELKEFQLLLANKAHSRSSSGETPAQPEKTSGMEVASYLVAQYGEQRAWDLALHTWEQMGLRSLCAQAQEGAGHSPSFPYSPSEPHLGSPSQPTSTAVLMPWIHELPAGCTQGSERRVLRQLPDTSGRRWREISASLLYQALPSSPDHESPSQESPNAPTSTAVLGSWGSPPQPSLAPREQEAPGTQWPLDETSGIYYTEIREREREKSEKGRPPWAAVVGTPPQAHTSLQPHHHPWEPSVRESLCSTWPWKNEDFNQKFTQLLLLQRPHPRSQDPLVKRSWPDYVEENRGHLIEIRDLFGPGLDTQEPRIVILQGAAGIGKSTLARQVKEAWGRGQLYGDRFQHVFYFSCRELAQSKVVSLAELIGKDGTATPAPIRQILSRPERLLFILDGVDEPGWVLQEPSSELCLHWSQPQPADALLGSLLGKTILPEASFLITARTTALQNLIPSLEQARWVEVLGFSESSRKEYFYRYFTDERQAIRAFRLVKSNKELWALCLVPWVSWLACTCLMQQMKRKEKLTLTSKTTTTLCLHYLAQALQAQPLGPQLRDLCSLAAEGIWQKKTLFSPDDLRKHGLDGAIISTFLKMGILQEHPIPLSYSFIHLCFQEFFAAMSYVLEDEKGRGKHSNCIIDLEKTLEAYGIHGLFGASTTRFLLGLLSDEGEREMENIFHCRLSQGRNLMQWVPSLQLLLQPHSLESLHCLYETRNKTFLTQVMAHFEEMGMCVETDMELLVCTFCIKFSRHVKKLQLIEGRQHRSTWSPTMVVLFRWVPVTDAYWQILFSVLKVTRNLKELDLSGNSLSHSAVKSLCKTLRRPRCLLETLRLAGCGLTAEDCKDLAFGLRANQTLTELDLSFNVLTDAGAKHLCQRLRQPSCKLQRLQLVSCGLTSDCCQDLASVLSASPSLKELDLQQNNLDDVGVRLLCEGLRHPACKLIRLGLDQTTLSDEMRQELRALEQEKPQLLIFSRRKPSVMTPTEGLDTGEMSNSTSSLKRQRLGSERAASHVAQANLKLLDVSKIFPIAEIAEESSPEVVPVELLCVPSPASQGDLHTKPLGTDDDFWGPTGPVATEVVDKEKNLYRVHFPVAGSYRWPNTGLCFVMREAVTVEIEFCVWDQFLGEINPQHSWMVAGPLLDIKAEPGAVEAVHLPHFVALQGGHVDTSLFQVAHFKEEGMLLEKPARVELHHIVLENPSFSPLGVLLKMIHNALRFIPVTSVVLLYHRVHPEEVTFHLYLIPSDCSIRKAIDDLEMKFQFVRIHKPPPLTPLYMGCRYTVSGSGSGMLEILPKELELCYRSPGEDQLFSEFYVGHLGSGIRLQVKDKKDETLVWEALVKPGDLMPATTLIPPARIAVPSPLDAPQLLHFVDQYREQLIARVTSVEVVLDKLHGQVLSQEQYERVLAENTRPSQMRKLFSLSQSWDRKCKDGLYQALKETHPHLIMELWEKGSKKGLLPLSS

T2: Biotin-FLAG-NLRP1 M1184V (human, UniProt Q9C000 1-1473, M1184V, biotin)
T2 construct: NLRP1 full length, natural variant M1184V; the construct for purification from HEK293T and its biotinylation are not described in the methods; also called M1184VHEK; source: HEK293T cells, purified
T2 sequence (looked up): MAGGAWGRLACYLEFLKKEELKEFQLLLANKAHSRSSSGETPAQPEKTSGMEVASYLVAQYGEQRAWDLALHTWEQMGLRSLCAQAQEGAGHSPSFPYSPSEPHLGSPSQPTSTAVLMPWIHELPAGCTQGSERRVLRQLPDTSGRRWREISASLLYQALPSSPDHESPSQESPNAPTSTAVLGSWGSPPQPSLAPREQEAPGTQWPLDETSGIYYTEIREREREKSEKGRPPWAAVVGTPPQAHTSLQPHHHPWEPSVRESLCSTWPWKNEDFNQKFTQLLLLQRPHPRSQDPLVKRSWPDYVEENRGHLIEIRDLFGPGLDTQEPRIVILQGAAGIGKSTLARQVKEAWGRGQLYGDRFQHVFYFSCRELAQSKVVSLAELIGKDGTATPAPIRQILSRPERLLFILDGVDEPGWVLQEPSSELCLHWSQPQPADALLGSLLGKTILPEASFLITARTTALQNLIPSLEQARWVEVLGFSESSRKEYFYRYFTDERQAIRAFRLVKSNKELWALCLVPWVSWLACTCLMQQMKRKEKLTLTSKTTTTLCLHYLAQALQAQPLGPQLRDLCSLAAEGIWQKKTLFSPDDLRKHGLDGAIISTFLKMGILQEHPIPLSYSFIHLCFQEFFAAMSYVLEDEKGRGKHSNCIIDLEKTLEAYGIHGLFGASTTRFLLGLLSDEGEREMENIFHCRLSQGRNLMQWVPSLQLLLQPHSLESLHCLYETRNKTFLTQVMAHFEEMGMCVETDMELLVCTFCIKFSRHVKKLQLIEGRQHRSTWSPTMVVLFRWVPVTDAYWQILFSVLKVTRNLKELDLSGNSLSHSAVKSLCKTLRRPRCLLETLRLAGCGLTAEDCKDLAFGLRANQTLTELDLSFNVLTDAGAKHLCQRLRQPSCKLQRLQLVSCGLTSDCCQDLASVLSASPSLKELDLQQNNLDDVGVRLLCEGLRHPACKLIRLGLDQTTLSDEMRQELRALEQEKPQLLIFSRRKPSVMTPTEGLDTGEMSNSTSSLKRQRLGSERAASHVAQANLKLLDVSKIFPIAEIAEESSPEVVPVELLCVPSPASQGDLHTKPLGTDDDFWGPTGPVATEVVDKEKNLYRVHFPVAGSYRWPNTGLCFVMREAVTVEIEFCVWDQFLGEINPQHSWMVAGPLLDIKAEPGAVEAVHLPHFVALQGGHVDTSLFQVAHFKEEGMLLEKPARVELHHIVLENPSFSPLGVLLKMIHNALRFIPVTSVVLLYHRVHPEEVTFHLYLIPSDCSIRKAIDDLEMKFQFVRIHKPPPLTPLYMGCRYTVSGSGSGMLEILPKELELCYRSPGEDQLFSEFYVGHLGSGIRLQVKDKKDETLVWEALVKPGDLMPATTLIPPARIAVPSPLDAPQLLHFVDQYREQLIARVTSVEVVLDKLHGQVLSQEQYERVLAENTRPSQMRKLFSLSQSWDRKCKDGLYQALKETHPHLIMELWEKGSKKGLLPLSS

B1: NLRP1-FIIND (M1184V) (domain or fragment, human, UniProt Q9C000 1064-1376, looked up)
chain: SQGDLHTKPLGTDDDFWGPTGPVATEVVDKEKNLYRVHFPVAGSYRWPNTGLCFVMREAVTVEIEFCVWDQFLGEINPQHSWMVAGPLLDIKAEPGAVEAVHLPHFVALQGGHVDTSLFQVAHFKEEGMLLEKPARVELHHIVLENPSFSPLGVLLKMIHNALRFIPVTSVVLLYHRVHPEEVTFHLYLIPSDCSIRKAIDDLEMKFQFVRIHKPPPLTPLYMGCRYTVSGSGSGMLEILPKELELCYRSPGEDQLFSEFYVGHLGSGIRLQVKDKKDETLVWEALVKPGDLMPATTLIPPARIAVPSPLDAP
notes: NLRP1 FIIND domain (ZU5-UPA), human, residues 1064-1376 of isoform 1, natural variant M1184V; Mostly autocleaved between F1212 and S1213, the fragments stay together; GST is still on the protein during the GST pull-down of the co-expression experiments and is cut off by TEV before SEC, SEC-MALS and SPR; also called M1184V variant FIIND; source: also co-expressed with His6-DPP9 with or without …

What was measured:
[1] = target: T3, Intracellularly biotinylated Avi-His6-tev-DPP9 (UniProt Q86TI2 1-863, biotin (on the Avi tag)); assay: SPR; as a3, with 100 μM Val-boroPro (VbP) present in all dilutions of the FIIND domain; conditions: both partners purified
T3 construct: dipeptidyl peptidase 9 (DPP9); also called biotin-DPP9; immobilized DPP9; source: Sf9 insect cells, intracellularly biotinylated, purified; not shown: Avi, N-terminal, kept; His6, N-terminal, kept

[2] = target: T3, Intracellularly biotinylated …; assay: SPR; biotinylated Avi-His6-tev-DPP9 immobilised on a Series S SA chip (Biacore 8K); monomeric fraction of FIIND proteins (or GST) injected, single-cycle kinetics, 78.125-5000 nM (S1213A from 39.06 nM), 10 mM Hepes pH 7.5, 150 mM NaCl, 0.5 mM TCEP, 0.05% Tween-20; conditions: both partners purified
NLRP1-FIIND (M1184V) = target: B1; assay: SEC-MALS; co-eluting SEC fractions of FIIND, DPP9 and free UPA co-expressed in Sf9 and co-purified; 0.5-1.0 mg/ml, Superose 6 increase (10/300) GL, buffer A without glycerol; conditions: partners not purified
[3] = target: T1, biotin-MBP-NLRP1 M1184V …; assay: SPR; Biotin-FLAG-NLRP1 (from HEK293T) or biotin-MBP-NLRP1 (from Sf9, multimer fraction) or biotin-MBP immobilised on a streptavidin chip; DPP9 injected at 78-2500 nM, single-cycle kinetics, 10 mM Hepes pH 7.5, 150 mM NaCl, 0.5 mM TCEP, 0.05% Tween-20; conditions: both partners purified
Biotin-FLAG-NLRP1 M1184V = target: T2, Biotin-FLAG-NLRP1 M1184V; assay: as above; conditions: both partners purified

Kd [1] [nM]	Kd [2] [nM]	stoichiometry N (NLRP1-FIIND (M1184V)) [DPP9 chains per FIIND]	Kd [3] [nM]	Kd (Biotin-FLAG-NLRP1 M1184V) [nM]	Binder
3650	3500	–	–	–	B1
–	–	2	149	144	His6-tev-DPP9 (enzyme, UniProt Q86TI2 1-863, looked up, dipeptidyl peptidase 9 (DPP9); Dimer by SEC-MALS (192 kDa); also called His6-DPP9; source: Sf9 insect cells, purified; also co-expressed with GST-tev-FIIND constructs in Sf9 and co-purified) MATTGTPTADRGDAAATDDPAARFQVQKHSWDGLRSIIHGSRKYSGLIVNKAPHDFQFVQKTDESGPHSHRLYYLGMPYGSRENSLLYSEIPKKVRKEALLLLSWKQMLDHFQATPHHGVYSREEELLRERKRLGVFGITSYDFHSESGLFLFQASNSLFHCRDGGKNGFMVSPMKPLEIKTQCSGPRMDPKICPADPAFFSFINNSDLWVANIETGEERRLTFCHQGLSNVLDDPKSAGVATFVIQEEFDRFTGYWWCPTASWEGSEGLKTLRILYEEVDESEVEVIHVPSPALEERKTDSYRYPRTGSKNPKIALKLAEFQTDSQGKIVSTQEKELVQPFSSLFPKVEYIARAGWTRDGKYAWAMFLDRPQQWLQLVLLPPALFIPSTENEEQRLASARAVPRNVQPYVVYEEVTNVWINVHDIFYPFPQSEGEDELCFLRANECKTGFCHLYKVTAVLKSQGYDWSEPFSPGEDEFKCPIKEEIALTSGEWEVLARHGSKIWVNEETKLVYFQGTKDTPLEHHLYVVSYEAAGEIVRLTTPGFSHSCSMSQNFDMFVSHYSSVSTPPCVHVYKLSGPDDDPLHKQPRFWASMMEAASCPPDYVPPEIFHFHTRSDVRLYGMIYKPHALQPGKKHPTVLFVYGGPQVQLVNNSFKGIKYLRLNTLASLGYAVVVIDGRGSCQRGLRFEGALKNQMGQVEIEDQVEGLQFVAEKYGFIDLSRVAIHGWSYGGFLSLMGLIHKPQVFKVAIAGAPVTVWMAYDTGYTERYMDVPENNQHGYEAGSVALHVEKLPNEPNRLLILHGFLDENVHFFHTNFLVSQLIRAGKPYQLQIYPNERHSIRCPESGEHYEVTLLHFLQEYL

Reference: article PMC9700037, “Inflammasome sensor NLRP1 disease variant M1184V promotes autoproteolysis and DPP9 complex formation by stabilizing the FIIND domain” (The Journal of Biological Chemistry, 2022)
